Each block holds one binder with its values, some of them ahead of it.
Assays:
[1] = molecular target: T1, human CAPRIN-1 expressed on the surface of human cancer cells (human, UniProt Q14444 2-709); assay: flow cytometry on the listed human cancer cell lines, culture supernatant, against secondary antibody only
T1 construct: Endogenous CAPRIN-1 of human cancer cell lines or tissues; also called CAPRIN-1 proteins on the cell membrane surface
T1 sequence: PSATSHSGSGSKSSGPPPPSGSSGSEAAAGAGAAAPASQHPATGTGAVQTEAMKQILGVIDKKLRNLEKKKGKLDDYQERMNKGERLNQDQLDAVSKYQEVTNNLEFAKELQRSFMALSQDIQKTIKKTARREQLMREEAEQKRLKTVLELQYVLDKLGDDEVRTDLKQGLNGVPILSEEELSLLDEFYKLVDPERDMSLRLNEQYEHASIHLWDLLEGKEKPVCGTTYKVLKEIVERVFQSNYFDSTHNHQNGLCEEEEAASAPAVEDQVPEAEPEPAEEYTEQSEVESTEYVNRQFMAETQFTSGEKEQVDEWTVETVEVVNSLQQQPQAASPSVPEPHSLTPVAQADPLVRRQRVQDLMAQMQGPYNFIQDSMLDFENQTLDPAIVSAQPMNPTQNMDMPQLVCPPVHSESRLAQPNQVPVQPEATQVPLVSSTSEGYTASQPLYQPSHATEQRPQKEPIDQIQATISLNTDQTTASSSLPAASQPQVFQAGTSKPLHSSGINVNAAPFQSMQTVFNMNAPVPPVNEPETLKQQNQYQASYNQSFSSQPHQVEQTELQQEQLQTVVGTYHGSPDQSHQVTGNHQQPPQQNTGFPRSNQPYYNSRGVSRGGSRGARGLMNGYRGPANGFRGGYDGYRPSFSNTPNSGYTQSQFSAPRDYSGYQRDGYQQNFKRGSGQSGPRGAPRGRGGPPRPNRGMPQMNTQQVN
Protocol: 10⁶ cells of each cell line were centrifuged in each 1.5-ml microcentrifuge tube. Each culture supernatant (100 μl) containing any of the antibodies #1, #2, and #3 and the chicken monoclonal antibodies #1, #2, #3, and #4 was added to the tube and left to stand for 1 hour on ice. After washing with PBS, FITC-labeled goat anti-mouse IgG (H+L) antibodies (manufactured by Jackson ImmunoResearch Laboratories, Inc.) diluted with PBS containing 0.1% FBS for the mouse-derived antibodies or FITC-labeled goat anti-chicken IgG (H+L) antibodies (manufactured by SouthernBiotech) diluted 100-fold with PBS containing 0.1% FBS for the chicken-derived antibodies were added thereto and left to stand at 4° C. for 30 minutes. After washing with PBS, the fluorescence intensity was measured using FACSCalibur (Becton, Dickinson and Company). The negative control used was cells reacted only with secondary antibodies. As a result, all the cells each treated with any of the antibodies #1, #2, and #3 and the chicken monoclonal antibodies #1 to #4 had fluorescence intensity at least 35% stronger than that of the negative control. […] The rates of enhancement in the fluorescence intensity was expressed as the rates of increase in mean fluorescence intensity (MFI) in respective cell lines, which are calculated according to the following formula.

[2] = molecular target: T1, human CAPRIN-1 expressed on the surface …; assay: cell-based or functional assay
[3] = molecular target: T2, partial CAPRIN-1 polypeptide consisting of the amino acid sequence of SEQ ID NO: 5 (human); assay: peptide ELISA, culture supernatant
T2 construct: Peptide coupled to Immobilizer Amino ELISA plate
T2 peptide: VFNMNAPVPPVNEPETLK
Protocol: The obtained mouse monoclonal antibodies #2 and #3 were examined for their specific reaction with the amino acid sequence of SEQ ID NO: 5 as a partial CAPRIN-1 sequence used as an immunogen. A 30 μg/ml solution of the amino acid sequence of SEQ ID NO: 5 prepared with a 0.1 M aqueous sodium carbonate solution and a partial CAPRIN-1 sequence free from the amino acid sequence of SEQ ID NO: 5 were each added to a 96-well plate Immobilizer Amino for ELISA (Nunc) at […] and reacted for one whole day and night at 4° C. to bind the peptides to the wells. A 0.1 M aqueous sodium carbonate solution containing 10 mM ethanolamine was added to the peptide-bound wells and left to stand at room temperature for 1 hour. The solution in each well was removed, and each well was then washed with PBS-T. Then, a Blockace solution was added thereto at 400 μl/well and left to stand at room temperature for 3 hours. The solution in each well was removed, and each well was washed with PBS-T. Then, the culture supernatant containing the mouse monoclonal antibody #2 was added thereto at […] and reacted at room temperature for 1 hour. […] The absorbance was measured at 450 nm and 595 nm using an absorption spectrometer.

B3: human-mouse chimeric comparative monoclonal antibody 8 (antibody, human IgG1, kappa)
heavy: not shown
light: EFHAVSLGQRATISCRASESVDSYGNSFMHWYQQKPGQPPKLLIYRASNLESGIPARFSGSGSRTDFTLTINPVEADDVATYYCQQSNEDPGRSEVVPSWRSNKTVAAPSVFIFPPSDEQLKSGTASVVCLLNNFYPREAKVQWKVDNALQSGNSQESVTEQDSKDSTYSLSSTLTLSKADYEKHKVYACEVTHQGLSSPVTKSFNRGEC
ADCC cytotoxic activity (51Cr release) against Caki-2 [2]: < 8% | ADCC cytotoxic activity (51Cr release) against HCT-116 [2]: < 3% | ADCC cytotoxic activity (51Cr release) against MCF7 [2]: < 5% | ADCC cytotoxic activity (51Cr release) against MIAPaCa-2 [2]: 7% | ADCC cytotoxic activity (51Cr release) against QG56 [2]: < 5% | ADCC cytotoxic activity (51Cr release) against all other cancer cell lines listed [2]: < 4%

B6: mouse monoclonal antibody #3 (antibody, V domains shown)
VH: GGGLVKPGGSLKLSCAASGFTFSSYGMSWVRQTPEKRLEWVATISSGGSYTYYPDSVKGRFTISRDNAKNTLYLQMSSLRSEDTAMYYCASLASYYFDYWGQGTTLTVSS
VL: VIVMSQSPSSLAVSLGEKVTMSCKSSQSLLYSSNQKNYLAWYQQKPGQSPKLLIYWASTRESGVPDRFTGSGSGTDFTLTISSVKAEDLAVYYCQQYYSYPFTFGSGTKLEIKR
notes: Mouse hybridoma antibody; detected with anti-mouse IgG; also called anti-CAPRIN-1 monoclonal antibody #3
binding result [3]: binds | rate of increase in mean fluorescence intensity [1]: ≥ 35%

B7: chicken monoclonal antibody #1 (antibody, V domains shown)
VH: AVTLDESGGGLQTPGGALSLVCKASGFTFRSHSMFWVRQAPGKGLEYVAGIYGVGRSIRYGSAVKGRATMSRDNGQSTVRLQLNNLRAEDTATYYCAKSGYFSNSRYWDSGAYFIDAWGHGTEVIVS
VL: ALTQPASVSANPGETVEITCSGGYSNYGWYQQKSPGSAPVTVIYYNDKRPSDIPSRFSGSKSGSTATLTITGVQAEDEAVYFCGGYDSSTDAGIFGAGTTLTV
notes: Chicken hybridoma antibody; also called anti-CAPRIN-1 chicken monoclonal antibody #1
rate of increase in mean fluorescence intensity [1]: ≥ 35%

B8: human-mouse chimeric comparative monoclonal antibody 10 (antibody, human IgG1, kappa)
heavy: not shown
light: RLPFYSLEQRATISYRASKNVSTSGYSYMHWNQQKPGQPPKLLIYLVSNLESGVPARFSGSGSGTDFTLNIHPVEEEDAATYYCQHIRELTRSELVPSWKSNTVAAPSVFIFPPSDEQLKSGTASVVCLLNNFYPREAKVQWKVDNALQSGNSQESVTEQDSKDSTYSLSSTLTLSKADYEKHKVYACEVTHQGLSSPVTKSFNRGEC
ADCC cytotoxic activity (51Cr release) against Caki-2 [2]: < 8% | ADCC cytotoxic activity (51Cr release) against HCT-116 [2]: < 3% | ADCC cytotoxic activity (51Cr release) against MCF7 [2]: < 5% | ADCC cytotoxic activity (51Cr release) against MIAPaCa-2 [2]: 7% | ADCC cytotoxic activity (51Cr release) against QG56 [2]: < 5% | ADCC cytotoxic activity (51Cr release) against all other cancer cell lines listed [2]: < 4%

The next lines start with the values.

rate of increase in mean fluorescence intensity [1]: ≥ 35%
B1: chicken monoclonal antibody #3 (antibody, V domains shown)
VH: AVTLDESGGGLQTPGGGLSLVCKGSGFTFSSFGMFWVRQAPGKGLEFVASISDNGRSTYYGSAVKGRATISRDDGQSTVRLQLNNLRAEDTGTYYCAKNAYVGRGCCFSYSIDAWGHGTEVIVS
VL: ALTQPASVSVNPGETVKITCSGGGSSSDAYGWYQQKSPGSAPVTLIYNGSNRPSHIPSRFSGSTSGSTNTLTITGVQVEDEAIYFCGSTDTSTSVGIFGAGTTLTV
notes: Chicken hybridoma antibody; also called anti-CAPRIN-1 chicken monoclonal antibody #3

rate of increase in mean fluorescence intensity [1]: ≥ 35%
B2: mouse monoclonal antibody #1 (antibody, V domains shown)
VH: GPGLVQPSQSLSITCTVSGFSLTTYDLHWVRQSPGKGLEWLGVIWSGGSTDYNAAFISRLSISKDNSKSQVFFKMNSLQANDTAIYYCARNYGYSAWFAYWGQGTLVTVSA
VL: DVLMTQTPLSLPVSLGDQASISCRSSQSIVHSNGNTYLEWYLQKPGQSPKLLIYKVSNRFSGVPDRFSGSGSGTDFTLKISRVEAEDLGVYYCFQGSHVPLTFGAGTKLELKR
notes: Mouse hybridoma antibody; detected with anti-mouse IgG; also called anti-CAPRIN-1 monoclonal antibody #1

rate of increase in mean fluorescence intensity [1]: ≥ 35%
B4: chicken monoclonal antibody #4 (antibody, V domains shown)
VH: AVTLDESGGGLQTPGGAVSLVCKGSGFTFSSYGMGWVRQAPGKGLEYVAAIRKDGSTNYGPAVKGRATISRDNGQSTVRLQLSNLRAEDTATYYCAKRSHTGVNAAKIDAWGRGTEVIVS
VL: ALTQPASVSANPGETVKITCSGASHNYGWFQQKSPGSAPVTVIYSNDKRPSDIPSRFSGSKSGSTATLTITGVQADDEAVYFCGGYNIYGPTFGAGTTLTV
notes: Chicken hybridoma antibody; also called anti-CAPRIN-1 chicken monoclonal antibody #4

rate of increase in mean fluorescence intensity [1]: ≥ 35%
B5: mouse monoclonal antibody #2 (antibody, V domains shown)
VH: B6 VH
VL: DVQMIQSPSSLSASLGDIVTMTCQASQGTSINLNWFQQKPGKAPKLLIYGASSLEDGVPSRFSGSCFGTDFTLTISSLEDEDMATYFCLQHSYLPPLTFGAGTKLELKR
notes: Mouse hybridoma antibody; detected with anti-mouse IgG; also called anti-CAPRIN-1 monoclonal antibody #2

— patent US20140186359A1 (TORAY INDUSTRIES, published 2014)
